The numbers were not newly measured in PMC8634938, which cites them from elsewhere.

A word on the Kd: it is the concentration at which binding is half-saturated.

For one data set, the target named is IL-22R (Homo sapiens) (UniProt Q8N6P7).
For the next data set, the target named is IL-22BP (Homo sapiens) (UniProt Q969J5).
Sequence of UniProt Q969J5 (Q969J5 22-263): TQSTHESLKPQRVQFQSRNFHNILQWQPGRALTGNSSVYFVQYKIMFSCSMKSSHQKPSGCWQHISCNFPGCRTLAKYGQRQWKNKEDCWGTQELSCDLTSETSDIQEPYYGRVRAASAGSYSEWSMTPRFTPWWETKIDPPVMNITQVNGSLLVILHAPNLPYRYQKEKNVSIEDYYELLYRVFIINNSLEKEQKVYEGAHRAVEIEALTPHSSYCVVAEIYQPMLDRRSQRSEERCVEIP

Sequence of UniProt Q8N6P7 (Q8N6P7 16-228): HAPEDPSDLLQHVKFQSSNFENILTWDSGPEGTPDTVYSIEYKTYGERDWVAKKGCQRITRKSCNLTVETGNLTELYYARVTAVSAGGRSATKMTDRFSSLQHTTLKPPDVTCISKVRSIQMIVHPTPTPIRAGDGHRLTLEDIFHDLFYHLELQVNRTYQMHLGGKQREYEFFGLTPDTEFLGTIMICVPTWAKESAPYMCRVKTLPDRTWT

Take IL-22 (from UniProt Q9GZX6): the Kd is 20 nM with IL-22R (Homo sapiens) and 0.001 nM in the data set with IL-22BP (Homo sapiens).
